Test results taken from patent publication US20230088269A1 (ARGENX BVBA, published 2023).

T1: recombinant human IL-22R (R&D Systems / Biotechne 2770-LR) (human, UniProt Q8N6P7 16-228)
T1 construct: Bought soluble recombinant protein (said to be 25 kDa); also called hIL22R; IL-22R1
T1 sequence: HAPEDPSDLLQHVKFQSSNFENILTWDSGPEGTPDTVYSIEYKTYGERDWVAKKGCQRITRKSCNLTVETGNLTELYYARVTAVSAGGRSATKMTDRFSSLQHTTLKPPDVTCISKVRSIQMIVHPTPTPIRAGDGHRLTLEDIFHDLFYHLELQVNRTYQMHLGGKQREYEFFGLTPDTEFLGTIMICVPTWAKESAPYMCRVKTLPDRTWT

T2: recombinant mouse IL22R (monomeric, R&D Systems cat 4248-MR) (mouse, UniProt Q80XZ4 16-230)
T2 construct: extracellular domain; also called murine IL-22R; mIL22R
T2 sequence (looked up): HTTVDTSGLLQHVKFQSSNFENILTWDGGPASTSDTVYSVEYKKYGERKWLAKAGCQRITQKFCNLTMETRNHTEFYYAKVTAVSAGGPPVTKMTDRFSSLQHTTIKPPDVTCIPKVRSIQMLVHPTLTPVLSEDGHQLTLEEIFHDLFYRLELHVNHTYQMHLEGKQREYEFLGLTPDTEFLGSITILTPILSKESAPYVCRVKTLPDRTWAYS

T3: rhIL22R-Fc (rhesus IL22R ECD fused to human Fc) (rhesus monkey, UniProt G7MHN4 16-228)
T3 construct: also called rhesus IL-22R1
T3 sequence: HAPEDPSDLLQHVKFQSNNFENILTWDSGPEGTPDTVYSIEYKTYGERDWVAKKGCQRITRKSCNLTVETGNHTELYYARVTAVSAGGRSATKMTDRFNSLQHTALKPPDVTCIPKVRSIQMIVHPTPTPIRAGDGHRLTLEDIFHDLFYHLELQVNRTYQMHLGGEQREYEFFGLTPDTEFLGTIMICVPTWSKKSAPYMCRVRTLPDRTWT

T4: human IL-22R expressed on cells (BW-hIL22R, Baf3-hIL22R/IL20Rb, transfected HEK, primary human skin cells) (human, UniProt Q8N6P7 16-574)
T4 sequence: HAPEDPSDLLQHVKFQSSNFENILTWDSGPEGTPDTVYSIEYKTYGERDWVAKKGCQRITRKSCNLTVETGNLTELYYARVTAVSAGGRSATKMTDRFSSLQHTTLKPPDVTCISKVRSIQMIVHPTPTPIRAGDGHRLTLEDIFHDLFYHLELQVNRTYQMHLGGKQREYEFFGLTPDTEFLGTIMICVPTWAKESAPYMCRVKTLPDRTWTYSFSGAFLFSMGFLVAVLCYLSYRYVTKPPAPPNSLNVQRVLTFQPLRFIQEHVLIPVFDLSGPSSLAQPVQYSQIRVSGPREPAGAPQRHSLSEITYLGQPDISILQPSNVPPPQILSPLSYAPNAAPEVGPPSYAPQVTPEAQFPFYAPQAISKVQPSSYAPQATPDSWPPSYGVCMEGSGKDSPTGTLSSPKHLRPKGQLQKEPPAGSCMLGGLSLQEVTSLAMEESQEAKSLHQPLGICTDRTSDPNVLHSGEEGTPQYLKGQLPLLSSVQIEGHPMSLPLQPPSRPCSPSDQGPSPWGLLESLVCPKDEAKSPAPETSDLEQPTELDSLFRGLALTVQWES


Tests used:
[1] = target: T1, recombinant human IL-22R (R&D Systems / …); test: SPR (Biacore), purified Fab
[2] = target: T2, recombinant mouse IL22R (monomeric, R&D …); test: SPR (Biacore), purified Fab
[3] = target: T1, recombinant human IL-22R (R&D Systems / …); test: off-rate of Fab fragment; method not stated
[4] = target: T3, rhIL22R-Fc (rhesus IL22R ECD fused to …); test: off-rate of Fab fragment; method not stated
[5] = target: T2, recombinant mouse IL22R (monomeric, R&D …); test: ELISA and SPR (Biacore), mAb
Experimental: After production and purification of the cyIL22R-Fc and the rhIL22R-Fc, the binding specificity to cynomolgus, rhesus and mouse IL22R ECD of all the antibodies from primary selection was tested in ELISA and by SPR (Biacore). Monomeric mouse IL22R was purchased from R&D Systems (cat 4248-MR).

[6] = target: T1, recombinant human IL-22R (R&D Systems / …); test: SPR (Biacore 3000), IL22R on CM5 chip, IgG1 injected
Experimental: In addition to the potency on cells, the in vitro binding kinetics and blocking activity of the purified antibodies were measured in Biacore (3000). […] Antibodies tested at a range of concentrations and prepared in HBSEP buffer at pH 7.4 (Biacore) were injected at 30 μl/min for 60 second and washed with HBSEP buffer at pH 7.4 (Biacore) for 10-20 min. The obtained sensograms were analyzed with the BIAevaluation software and kinetics were determined using standard fitting (Langmuir 1:1 with mass transfer).

[7] = target: T1, recombinant human IL-22R (R&D Systems / …); test: SPR (Biacore), hIL22R on CM5 chip, mAb injected, 1:1 Langmuir
Experimental: The affinity of the 230C9 and 223G5 antibodies was measured using SPR ([…]). In brief, 250RU of human IL22R (Biotechne, 2770-LR) was coated onto a CM5 chip using standard methods (EDC coupling of IL22R at a concentration of 2 μg/ml in acetate buffer pH4.5). Then various concentrations of antibody were injected in HBSEP+ buffer (pH 7.4) for 2 minutes. The binding was monitored also during a 10 min washing (HBSEP+).

[8] = target: T4, human IL-22R expressed on cells …; test: cell-based or functional assay
[9] = target: T4, human IL-22R expressed on cells …; test: cell-based or functional assay; remark: listed apart in the source
[10] = target: T4, human IL-22R expressed on cells …; test: cell-based or functional assay; remark: listed apart in the source
[11] = target: rhesus IL22R ECD - human TM - human ICD chimera on transfected HEK cells (rhesus monkey; human, UniProt Q8N6P7 229-574); test: cell-based or functional assay
[12] = target: cynoIL22R_ECD-humanTM_humanICD chimera on transfected cells (cynomolgus monkey; human, UniProt Q8N6P7 229-574); test: cell-based or functional assay

Binder | koff [3] [s⁻¹] | koff [4] [s⁻¹] | Kd [6] [nM] | koff [6] [s⁻¹] | kon [6] [M⁻¹ s⁻¹] | other results
157A2 Fab (Fab, V domains shown, VH family 4; purified llama Fab) VH: QVQLVESGGGLVQPGGSLRLSCAASGFTFSSYDMSWVRQAPGKGLEWVSSIYNDGSNTAYSDSVKGRFTISRDNAKNTLYLQMNSLKSEDTAVYYCAKVGFSGTYYSESWGQGTQVTVSS VL: NFMLTQPSAVSVSLGQTAKITCQGGYYAHWYQQKPGQAPVLVIYGNNNRPSGIPERFSGSSSGNTATLTISGAQAEDEAEYYCQSGSSSANAVFGGGTHLTVL |  |  |  |  |  | koff [1]: 0.0037 s⁻¹; binding result [2]: no binding
230C9 Fab (Fab, V domains shown, Germlined variant of 218A7) VH: QVQLVESGGGLVQPGGSLRLSCAASGFTFSSYDMNWVRQAPGKGLEWVSSIYNDASNTAYSDSVKGRFTISRDNSKNTLYLQMNSLRAEDTAVYYCAKVGFSGTYYSESWGQGTLVTVSS VL: SYELTQPSSVSVALGQTARITCQGGYYAHWYQQKPGQAPVLVIYGQNNRPSGIPERFSGSGAGNTATLTISRAQAEDEADYYCQSGSSSSNAVFGGGTKLTVL | 0.000352 | 0.000436 |  |  |  | 
218A7 Fab (Fab, V domains shown, Light chain shuffled variant of 157A2) VH: QVQLVESGGGLVQPGGSLRLSCAASGFTFSSYDMSWVRQAPGKGLEWVSSIYNDGSNTAYSDSVKGRFTISRDNAKNTLYLQMNSLKSEDTAVYYCAKVGFSGTYYSESWGQGTQVTVSS VL: LPVLTQPSAVSVSLGQTARITCQGGYYAHWYQQKPGQAPVLVIYGQNNRPSGIPERFSGSGAGNTATLTISGAQAEDEAEYYCQSGSSSANAVFGGGTKLTVL | 0.00081 | 0.00097 |  |  |  | 
170B2 mAb (antibody, V domains shown) VH: EVQLVESGGGLVQPGGSLRLSCAASGFTFSSSWMYWVRQAPGKGLEFVSVINTRSGITHYVESVKGRFTISTDNAKNTLFLQMNSLKSEDTAVYYCATRIQGLIDYWGQGTQVTVSS VL: DIVMTQSPSSLSVSLGDRVTITCQASQSIGSVNALAWYQQKPGQSLKLLIHGASRLQTGVPSRFSGSGSGTSFTLAISGVEAEDLATYYCLQDYAWPLTFGQGTKVELK |  |  | 0.12 | 9.3e-05 | 760000 | 
223G5 Fab (Fab, V domains shown, Germlined variant of 166G8) VH: QVQLVESGGGLVQPGGSLRLSCAASGFTFSSYFMSWVRQAPGKGPEWVSGIHISGGITYYTDSVKGRFTISRDNAKNTLYLQMNSLRAEDTAVYYCVTPPGPFKAHYNGAKYWGKGTLVTVSS VL: QSALTQPPSVSGSPGQSVTISCTGTSSDIGSYNYVSWYQQLPGKAPKLLIYEVNKRSSGVPDRFSGSKSGNTASLTISGLQAEDEADYYCASYRLYADYVFGGGTQLTVL | 0.000529 | 0.00584 |  |  |  | 

More lines, main results first:

koff [3] [s⁻¹] | koff [4] [s⁻¹] | Kd [6] [nM] | koff [6] [s⁻¹] | kon [6] [M⁻¹ s⁻¹] | Binder | other results
 |  | 2.8 | 0.0011 | 390000 | 157A2 mAb (antibody, IgG1, V domains shown, VH family 4; produced as IgG1 with human constant domains) VH: QVQLVESGGGLVQPGGSLRLSCAASGFTFSSYDMSWVRQAPGKGLEWVSSIYNDGSNTAYSDSVKGRFTISRDNAKNTLYLQMNSLKSEDTAVYYCAKVGFSGTYYSESWGQGTQVTVSS VL: NFMLTQPSAVSVSLGQTAKITCQGGYYAHWYQQKPGQAPVLVIYGNNNRPSGIPERFSGSSSGNTATLTISGAQAEDEAEYYCQSGSSSANAVFGGGTHLTVL | binding result [5]: no binding
 |  | 0.022 | 0.0002 | 9.2e+06 | 166G8 mAb (antibody, IgG1, V domains shown, VH family 5; produced as IgG1 with human constant domains) VH: QVQLVESGGGLVQPGDSLRLSCAASGFTFGSYFMSWVRQAPGKGPEWVSGIHISGGITYYLDSVKGRFTISRDNAKNTLYLQMNNLKPEDTAVYYCVTPPGPFKAHYNGMKYWGKGTLVTVSS VL: NFMLTQPPSVSGTLGKTVTISCTGTSRDIGDYNYVSWYQQLPGLAPKLLIYKVNTRSSGTPDRFSGSKSGNTASLTISGLQSEDEADYYCASYRLYADYVFGGGTHLTVL | binding result [5]: no binding
 |  | 0.24 | 6.4e-05 | 270000 | 280.346.TSY (benchmark humanised IL-22R antibody of WO2011/061119) (antibody, V domains shown) VH: EVQLVESGGGLVQPGGSLRLSCAASGYSITAEYMNWVRQAPGKGLEWIGEINPSTGTTTYNQKFKGRFTISVDQSKNTAYLQMNSLRAEDTAVYYCARFDAYFDYWGQGTLVTVSS VL: not shown | Kd [7]: 0.69 nM; koff [7]: 0.00034 s⁻¹; kon [7]: 490000 M⁻¹ s⁻¹; IC50 blocking IL-22 (nM), BWhIL22R cell line [8]: 0.69 nM; Relative potency to 280.346.TSY (IL-22, BWhIL22R cell line) [8]: 1 fold; IC50 blocking IL-20 (nM), Baf3hIL22R/IL20Rb cell line [9]: 1.49 nM; EC50 (nM), STAT3-reporter in HEK cells after human IL22, Human ECD [10]: 0.26 nM; EC50 (nM), STAT3-reporter in HEK cells after human IL22, Rhesus ECD [11]: 0.43 nM; EC50 (nM), STAT3-reporter in HEK cells after human IL22, Cyno ECD [12]: 0.16 nM
